Among the data in US20200239888 are Kd values, retold here.

The target in data set [1] is NanoLuc luciferase control (NLUC-HA) (UniProt Q9GV45). Conditions: full PS, nanoBRET, control protein.
In data set [2] the target is FUS(375-526)[P525L][R/S in 375-422]-NLUC-HA P525L; all Arg to Ser in 375-422 (UniProt P35637). As to conditions: full PS, nanoBRET.
Data set [3] deals with FUS(375-526)[P525L][R/S in 454-526]-NLUC-HA P525L; all Arg to Ser in 454-526 (UniProt P35637). As to conditions: full PS, nanoBRET.
Data set [4] concerns the target FUS(1-526)[P525L][R/S in 375-422 and 454-526]-NLUC-FLAG P525L; all Arg to Ser in 375-422 and 454-526 (UniProt P35637). Conditions: nanoBRET.
The test system of data set [5] is HA-NES-β23-NLUC (artificial). As to conditions: full PS, nanoBRET, control fusion.
Data set [6] deals with HA-NES-β23-NLUC-FUS(375-526)[P525L][R/S in 375-422 and 454-526] P525L; all Arg to Ser in 375-422 and 454-526 (UniProt P35637). Conditions: full PS, nanoBRET.
The mark [7] stands for this setting: 2'-MOE at 1-5 and 16-20, DNA at 6-15, all C 5mC.
Where [8] appears, read: cEt at 1-5 and 16-20, DNA at 6-15, all C 5mC.
[9] abbreviates: 2'-F at 1-5 and 16-20, DNA at 6-15, 5mC at C8, C9, C11.

Like-named read-outs stand apart in the source and are kept apart here. A value given as a limit tells only on which side of the number the result lay.

Turning to “CTGCTAGCCTCTGGATTTGA [766633 (2'-MOE 5-10-5 gapmer)]”, the Kd in data set [1] (2'-MOE at 1-5 and 16-20, DNA at 6-15, all C 5mC, 100 mM KOAc, 20 mM Tris pH 8.0, 1 mM EDTA, 0.01% NP-40, RT) is over 1000 nM; in data set [2] (setting [7]), 12.4 nM; in data set [3] (setting [7]), 282 nM; in data set [4] (2'-MOE at 1-5 and 16-20, DNA at 6-15, full PS, all C 5mC), 1.6 nM; in data set [5] (setting [7]), over 1000 nM; in data set [6] (setting [7]), over 1000 nM.
With “CTGCTAGCCTCTGGATTTGA [766635 (cEt 5-10-5 gapmer)]”, the equilibrium dissociation constant (Kd) in data set [1] (setting [8]) was over 1000 nM; in data set [2] (setting [8]), 14.3 nM; in data set [3] (setting [8]) it was 290 nM; in data set [4] (cEt at 1-5 and 16-20, DNA at 6-15, full PS, all C 5mC), 3.7 nM; in data set [5] (setting [8]), 950 nM; in data set [6] (setting [8]) it was over 1000 nM.
“CUGCUAGCCTCTGGAUUUGA [766637 (2'-F 5-10-5 gapmer)]”: the Kd in data set [1] (setting [9]) was over 1000 nM; in data set [2] (setting [9]) it was 1.8 nM; in data set [3] (setting [9]), 38.4 nM; in data set [4] (2'-F at 1-5 and 16-20, DNA at 6-15, full PS, 5mC at C8, C9, C11), 0.3 nM; in data set [5] (setting [9]) it was 345 nM; in data set [6] (setting [9]) it was 200 nM.
In data set [4], “CUGCUAGCCUCUGGAUUUGA [JB39 (RNA, phosphodiester)]” registered a Kd of 248 nM. This counts as sub-micromolar.
